Source: article PMC3166428

Biological target: GST-TRIP8b(1b-2) full
Assay: pull-down

fraction of loaded clathrin in the eluate (fraction of loaded clathrin): > 0.67
Substance: clathrin (from UniProt P11442 1-1675; P08081 1-248) (complex)
